Results as given in patent US20250066499A1 (SUNSHINE GUOJIAN PHARMACEUTICAL SHANGHAI, published 2025).

Assays:
Experiment in all cases: ELISA; decline multiple of EC50 against CD73-ND
CD73-ND-Y135A = molecular target: T1, CD73-ND-Y135A (human, UniProt P21589 27-317)
T1 construct: Alanine mutant of CD73-ND
T1 sequence: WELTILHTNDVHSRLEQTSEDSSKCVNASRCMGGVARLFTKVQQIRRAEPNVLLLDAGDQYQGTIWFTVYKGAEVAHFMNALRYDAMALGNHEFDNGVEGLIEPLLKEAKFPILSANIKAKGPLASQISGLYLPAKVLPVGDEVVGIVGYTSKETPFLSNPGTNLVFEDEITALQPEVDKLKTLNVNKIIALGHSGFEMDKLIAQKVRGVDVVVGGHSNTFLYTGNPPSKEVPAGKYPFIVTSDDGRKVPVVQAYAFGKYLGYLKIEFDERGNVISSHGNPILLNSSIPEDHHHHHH
Experimental: (§1) The ELISA plates were coated with SA protein diluted to 1.5 μg/mL in coating buffer (50 mM carbonate coating buffer, pH 9.6) and incubated overnight at 4° C. The supernatant was discarded, and the plates were washed three times with PBST. Then, 5% skimmed milk powder prepared with PBS was added for blocking and the plates were incubated for 2 h at 37° C. After washing the plates once with PBST, CD73-biotin protein (prepared by biotinylating CD73-His protein according to the EZ-Link NHS-Biotin Reagent instructions) was diluted to 0.5 μg/mL and added at 100 μL/well for incubation at room temperature for 1 h. The plates were washed three times with PBST, and the prepared murine-derived monoclonal antibodies against human CD73 were serially diluted with 1% BSA buffer prepared with PBST and added to the ELISA plates at 100 μl/well. The plates were incubated at 37° C. for 1 h. After washing the plates three times with PBST, HRP-labeled goat anti-mouse IgG secondary antibody was added and the plates were incubated for 30 min at 37° C. After washing the plates three times with PBST, the residual droplets were patted dry on absorbent paper as much as possible. Then, 100 μl of TMB color developing solution was added to each well, and the plates were incubated in the dark at room temperature for 5 min for color development. Subsequently, 50 μl of 2M H₂SO₄ stop solution was added to each well to terminate the substrate reaction. The OD values were read at 450 nm using a multimode microplate reader to analyze the binding ability of the tested antibodies to the target antigen human CD73-His.
(§2) Referring to the experimental method in Example 3, the affinity of 48A11-HuV33 for various mutant proteins of CD73-ND was determined. The SA protein was diluted to 1 μg/mL for coating the ELISA plates, and the biotinylated CD73 protein (CD73-biotin) was used at a concentration of 0.1 μg/mL.

CD73-ND-his = molecular target: T2, CD73-ND-his (human, UniProt P21589 27-317)
T2 construct: Biotinylated and captured on streptavidin in the ELISA
T2 sequence: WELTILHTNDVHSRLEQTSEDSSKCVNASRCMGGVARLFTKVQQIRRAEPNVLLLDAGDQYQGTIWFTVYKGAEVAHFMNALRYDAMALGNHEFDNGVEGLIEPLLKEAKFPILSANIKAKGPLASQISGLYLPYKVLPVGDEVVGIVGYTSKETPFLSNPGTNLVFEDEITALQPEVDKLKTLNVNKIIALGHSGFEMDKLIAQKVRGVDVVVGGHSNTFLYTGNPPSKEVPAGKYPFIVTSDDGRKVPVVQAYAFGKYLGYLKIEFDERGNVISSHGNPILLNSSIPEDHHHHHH
Experimental: as §1, §2

CD73-ND-L138A = molecular target: T3, CD73-ND-L138A (human, UniProt P21589 27-317)
T3 construct: Alanine mutant of CD73-ND
T3 sequence: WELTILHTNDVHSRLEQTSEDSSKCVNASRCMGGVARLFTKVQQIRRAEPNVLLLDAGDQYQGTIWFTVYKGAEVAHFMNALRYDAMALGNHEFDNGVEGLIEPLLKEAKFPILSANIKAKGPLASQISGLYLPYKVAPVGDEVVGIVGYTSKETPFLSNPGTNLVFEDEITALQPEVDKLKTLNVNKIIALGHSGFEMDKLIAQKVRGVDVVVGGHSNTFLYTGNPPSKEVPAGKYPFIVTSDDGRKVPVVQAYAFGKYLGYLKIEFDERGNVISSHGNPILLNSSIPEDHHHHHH
Experimental: as §1, §2

CD73-ND-L133A = molecular target: T4, CD73-ND-L133A (human, UniProt P21589 27-317)
T4 construct: Alanine mutant of CD73-ND
T4 sequence: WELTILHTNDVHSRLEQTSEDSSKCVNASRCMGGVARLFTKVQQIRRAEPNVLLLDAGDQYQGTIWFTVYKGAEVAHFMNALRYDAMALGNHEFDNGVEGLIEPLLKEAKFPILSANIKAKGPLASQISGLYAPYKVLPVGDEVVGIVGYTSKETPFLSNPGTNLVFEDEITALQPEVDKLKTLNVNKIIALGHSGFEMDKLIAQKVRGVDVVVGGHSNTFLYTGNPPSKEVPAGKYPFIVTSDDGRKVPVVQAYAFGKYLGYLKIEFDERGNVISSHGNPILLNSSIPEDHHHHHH
Experimental: as §1, §2

CD73-ND-V137A = molecular target: T5, CD73-ND-V137A (human, UniProt P21589 27-317)
T5 construct: Alanine mutant of CD73-ND
T5 sequence: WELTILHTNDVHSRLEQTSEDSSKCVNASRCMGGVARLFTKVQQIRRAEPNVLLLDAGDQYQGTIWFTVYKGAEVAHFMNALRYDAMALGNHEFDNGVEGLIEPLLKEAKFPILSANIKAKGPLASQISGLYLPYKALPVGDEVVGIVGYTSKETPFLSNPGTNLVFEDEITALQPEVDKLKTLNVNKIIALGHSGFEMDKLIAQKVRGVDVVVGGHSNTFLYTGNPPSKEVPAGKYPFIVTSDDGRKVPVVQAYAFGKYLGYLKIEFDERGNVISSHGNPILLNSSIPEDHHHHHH
Experimental: as §1, §2

CD73-ND-P134A = molecular target: T6, CD73-ND-P134A (human, UniProt P21589 27-317)
T6 construct: Alanine mutant of CD73-ND
T6 sequence: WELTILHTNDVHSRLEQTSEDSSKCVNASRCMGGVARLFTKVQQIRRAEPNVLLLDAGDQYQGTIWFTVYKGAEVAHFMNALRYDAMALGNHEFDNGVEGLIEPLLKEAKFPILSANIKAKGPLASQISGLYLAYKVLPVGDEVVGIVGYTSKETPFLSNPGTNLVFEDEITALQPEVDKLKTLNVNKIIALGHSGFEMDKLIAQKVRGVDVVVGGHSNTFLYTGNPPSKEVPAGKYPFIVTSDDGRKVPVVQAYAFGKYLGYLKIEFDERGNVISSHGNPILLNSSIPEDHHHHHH
Experimental: as §1, §2

B1: 48A11-HuV33 (antibody, human IgG4, V domains shown)
VH: QVQLVQSGAEVKKPGASVKVSCKASGYTFTSYWMHWVRQAPGQGLEWIGEINPSIGRTNYNEKFKSRVTLTRDTSTSTAYMELSSLRSEDTAVYYCARRVYGTMDYWGQGTLVTVSS
VL: DIQMTQSPSSLSASVGDRVTITCKASQDINSYLSWFQQKPGKSPKLLIYRANIWVDGVPSRFSGSGSGQDYTFTISSLQPEDIATYYCLQYDELYTFGQGTKVEIK
notes: Humanized
CD73-ND-Y135A
  Ratio(EC50): 1.1 fold
CD73-ND-his
  Ratio(EC50): 1 fold
CD73-ND-L138A
  Ratio(EC50): 1.2 fold
CD73-ND-L133A
  Ratio(EC50): 169 fold
CD73-ND-V137A
  Ratio(EC50): 5.9 fold
CD73-ND-P134A
  Ratio(EC50): 1.3 fold
